Reference: patent publication US7105488B1, “G protein-coupled receptor antagonists” (priority 1998, dated 2006)
Where a SMILES comes first, the peptide text is derived from it. Where no end group is shown, it is not given here. rhodamine = not defined here; Rhod = not defined here

Assays:
CXCR4 receptor [1] = molecular target: CXCR4 receptor (Homo sapiens, UniProt P61073); assay: Inhibition of SDF-1α-induced intracellular calcium release (Fura-2/AM) in HeLa and U87 cells; type: cell-based; details: for Decrease in antagonist potency relative to F-2-2: structure-activity of TM2 peptides
Sequence of CXCR4 receptor (Homo sapiens, UniProt P61073) (P61073 whole entry): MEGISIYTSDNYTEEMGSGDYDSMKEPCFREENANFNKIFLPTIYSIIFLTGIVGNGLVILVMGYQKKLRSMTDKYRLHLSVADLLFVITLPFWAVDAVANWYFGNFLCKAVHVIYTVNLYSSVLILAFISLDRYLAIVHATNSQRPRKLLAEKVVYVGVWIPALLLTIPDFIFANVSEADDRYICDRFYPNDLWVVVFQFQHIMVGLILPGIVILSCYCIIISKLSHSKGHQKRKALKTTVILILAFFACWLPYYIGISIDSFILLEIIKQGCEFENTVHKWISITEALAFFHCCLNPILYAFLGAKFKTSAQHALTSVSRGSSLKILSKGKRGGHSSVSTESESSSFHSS
Method: The effect of the peptides on CXCR4-mediated calcium fluxes in HeLa cells that naturally express the CXCR4 receptor and U87 cells stably expressing the CXCR4 receptor was tested as follows. Cells grown on Nunc cover glass chamber slides were incubated with 1 micromolar Fura-2/AM for 20 min in a CO2-incubator, rinsed with PBS and mounted on the stage of a Zeiss Axiovert inverted microscope. [Ca^2+]i measurements were performed using an Attofluor digital imaging system (Atto Instruments, Rockville, Md.). Fluorescence of Fura was excited at alternating wavelength of 340 and 380 nm. […] Calibrations of [Ca^2+]i signals were performed using Ca^2+ standards containing 1 micromolar Fura. CXCR4 antagonists were tested on HeLa cells and U87 cells. Stromal cell-derived factor-1α (SDF-1α) was used as a specific CXCR4 agonist. CCR5 antagonists, which were used in selectivity studies as described below, were tested on HEK (human kidney […]) cells stably expressing the CCR5 receptor and RANTES was used as an agonist. The antagonist activity of the peptides was evaluated by measuring the inhibition of agonist-evoked intracellular Ca^2+i release. These measurements were carried out in Fura-2/AM-treated cells, utilizing an Attofluor digital imaging system as described above. The agonist was SDF-1 α.

CXCR4 receptor [2] = molecular target: T1, CXCR4 receptor (UniProt P61073 1-352, limits assumed); assay: cell-based or functional assay
T1 sequence (P61073 whole entry): as above

CXCR4 receptor [3] = molecular target: T1, CXCR4 receptor; assay: cell-based or functional assay; remark: listed apart in the source
[4] = molecular target: T2, rat cholecystokinin receptor type A (CCKAR) (rat, UniProt P30551 1-444); assay: cell-based or functional assay
T2 sequence (looked up): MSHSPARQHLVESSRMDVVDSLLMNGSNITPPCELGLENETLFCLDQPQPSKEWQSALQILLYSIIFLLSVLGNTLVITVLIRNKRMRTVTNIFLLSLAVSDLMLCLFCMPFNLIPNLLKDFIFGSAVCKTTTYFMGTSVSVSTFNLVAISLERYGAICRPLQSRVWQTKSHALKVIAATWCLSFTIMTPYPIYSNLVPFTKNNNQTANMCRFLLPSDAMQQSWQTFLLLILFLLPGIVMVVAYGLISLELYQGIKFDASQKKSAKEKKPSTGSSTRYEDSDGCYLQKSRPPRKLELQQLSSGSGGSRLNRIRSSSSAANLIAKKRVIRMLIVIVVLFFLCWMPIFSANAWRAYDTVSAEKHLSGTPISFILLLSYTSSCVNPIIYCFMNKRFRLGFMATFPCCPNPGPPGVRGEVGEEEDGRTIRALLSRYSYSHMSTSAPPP

[5] = molecular target: T2, rat cholecystokinin receptor type A …; assay: inhibition of binding of fluorescent agonist RG-CCK-8 to CHO cells expressing rat CCKAR, quantitative confocal laser scanning microscopy
Method: None of CCKAR-derived peptides served as antagonists of chemokine receptors and none could inhibit HIV-1 infection. The activity of the antagonists in inhibiting signaling through the receptor was compared to the ability to prevent agonist binding (Table 4). Inhibition of signaling was assessed in CCK-8 evoked intracellular calcium release in FURA-2/AM treated CHO cells stably transfected with rat CCKAR (Tarasova, et al. (1997) *J. Biol. Chem.* 272:14817). Inhibition of ligand binding was measured with the use of a fluorescent agonist, rhodamine green CCK-8 (RG-CCK-8) and quantitative confocal laser scanning microscopy (Tarasova, et al. (1997) *J. Biol. Chem.* 272:14817). Peptides derived from the first, second, and sixth transmembrane domains inhibited CCK-induced signaling through the CCKAR receptor. […] A peptide derived from the sixth domain, CCKAR-6-1, was active in inhibition of signaling, but had very low activity in inhibition of RG-CCK-8 binding.

CXCR4 receptor [6] = molecular target: T1, CXCR4 receptor; assay: cell-based or functional assay; remark: listed apart in the source
CXCR4 receptor [7] = molecular target: T1, CXCR4 receptor; assay: cell-based or functional assay; remark: listed apart in the source

KAVHVIYTVNLYSSVLILAFISL-NH2 [Peptide F-3-1]
Concentration, required for complete inhibition of [Ca^2+I] release (CXCR4 receptor [1]; SDF-1α-induced, Table 1): >50 µM

VITLPFWAVDAVANWYFGNKK (F-2-4 GPCR CXCR4) [Peptide F-2-4]
Concentration, required for complete inhibition of [Ca^2+I] release (CXCR4 receptor [1]; TM2-derived peptides, Table 3): >50 µM | Decrease in antagonist potency relative to F-2-2 (CXCR4 receptor [1]): 20 fold

DDIFLPTIYSIIFLTGIV-HN2 (DDIFLPTIYSIIFLTGIV-NH2) [Peptide F-1-5]
Concentration, required for complete inhibition of [Ca^2+I] release (CXCR4 receptor [1]; SDF-1α-induced, Table 1): >30 µM

KVYVGVWIPALLLTLPDFIF (KVYVGVWIPALLLTIPDFIF; F-4-1 GPCR CXCR4) [Peptide F-4-1]
Antagonist activity on CXCR4 signaling, in words (CXCR4 receptor [1]): abolished the antagonist activity | Concentration, required for complete inhibition of [Ca^2+I] release (CXCR4 receptor [1]; SDF-1α-induced, Table 1): >50 µM

LLFVITLPFWAVDAVANWYFGN (F-2-1 GPCR CXCR4) [Peptide F-2-1]
Concentration, required for complete inhibition of [Ca^2+I] release (CXCR4 receptor [1]; TM2-derived peptides, Table 3): 5 µM | Decrease in antagonist potency relative to F-2-2 (CXCR4 receptor [1]): more than ten-fold

CC[C@H](C)[C@H](NC(=O)CNC(=O)[C@@H](NC(=O)[C@H](Cc1ccc(O)cc1)NC(=O)[C@H](Cc1ccc(O)cc1)NC(=O)[C@@H]1CCCN1C(=O)[C@H](CC(C)C)NC(=O)[C@H](Cc1c[nH]c2ccccc12)NC(=O)[C@H](CS)NC(=O)[C@H](C)NC(=O)[C@H](Cc1ccccc1)NC(=O)[C@H](Cc1ccccc1)NC(=O)[C@H](C)NC(=O)[C@H](CC(C)C)NC(=O)[C@@H](NC(=O)[C@H](CC(C)C)NC(=O)[C@@H](NC(=O)[C@@H](N)C(C)C)[C@@H](C)CC)[C@@H](C)CC)[C@@H](C)CC)C(=O)N[C@@H](CO)C(=O)N[C@H](C(=O)N[C@@H](CC(=O)O)C(=O)O)[C@@H](C)CC [Peptide F-6-1] (H-VILILAFFACWLPYYIGISID-OH; N-terminus and C-terminus assumed)
Concentration, required for inhibition of signal transduction (CXCR4 receptor [1]; SDF-1α-induced intracellular calcium release, Table 2): 10 µM

LLFVITLPFWAVDAVANWYFGNKK (F-2-8 GPCR CXCR4) [Peptide F-2-8]
Concentration, required for complete inhibition of [Ca^2+I] release (CXCR4 receptor [1]; TM2-derived peptides, Table 3): 20 µM

LLFVITLPFWAVDAVANDD (F-2-5 GPCR CXCR4) [Peptide F-2-5]
Concentration, required for complete inhibition of [Ca^2+I] release (CXCR4 receptor [1]; TM2-derived peptides, Table 3): 10 µM

AcLLFVITLPFWAVDAVANWYFGNDDK(Rhod)D (Ac-LLFVITLPFWAVDAVANWYFGNDDK(rhodamine)D; reading uncertain) [Rhod - AcF-2-2]
Concentration, required for complete inhibition of [Ca^2+I] release (CXCR4 receptor [1]; TM2-derived peptides, Table 3): 8 µM

LLFVITLPFWAVDAVANWYFGNKK [F-2-8]
antagonist activity relative to F-2-2 (CXCR4 receptor [2]): 100 fold | Concentration, required for complete inhibition of [Ca^2+I] release (CXCR4 receptor [3]): 20 µM

FLLSLAVSDLMLCLFCMPFNLP (also called CCKAR-2-1; CCKAR-TN-2-1) [CCKAR-TM-2-1]
Concentration, required for inhibition of signaling (CCK-8-induced intracellular calcium release) [4]: 2 µM | IC50 [5]: 500 nM

DDQTFLLLILFLLPGIVMVVAYGL [CCKAR-TM-5-3 (#45)]
Concentration, required for inhibition of signaling (CCK-8-induced intracellular calcium release) [4]: > 50 µM

LLFVITLPFWAVDAVANWYFGNDD [F-2-2]
Concentration, required for inhibition of signal transduction (µM) (SDF-1α-induced intracellular calcium release) (CXCR4 receptor [6]): 0.2 µM | EC50 in anti-HIV-1 assay (µM) (cytoprotection, CEM-SS cells infected with HIV-1RF) (CXCR4 receptor [6]): 2.27 µM | Concentration, required for complete inhibition of [Ca^2+I] release (CXCR4 receptor [3]): 0.2 µM

VITLPFWAVDAVANWYFGNKK [F-2-4]
Concentration, required for complete inhibition of [Ca^2+I] release (CXCR4 receptor [3]): > 50 µM

HIMVGLILPGIVILSCYCIII-NH2 (cysteine pairing not given here) [F-5-1]
Concentration, required for complete inhibition of [Ca^2+I] release (SDF-1α-induced) (CXCR4 receptor [7]): > 50 µM

LSVADLLFVITLPFWAVDAVANDD [F-2-6]
Concentration, required for complete inhibition of [Ca^2+I] release (CXCR4 receptor [3]): 20 µM

LLFVITLPFWAVDAVANDD [F-2-5]
potency relative to F-2-2 (CXCR4 receptor [2]): 20 fold | Concentration, required for complete inhibition of [Ca^2+I] release (CXCR4 receptor [3]): 10 µM

IVVLFFLCWMPIFSANAWRAYDTVDD [CCKAR-TM-6-4 (#77)]
Concentration, required for inhibition of signaling (CCK-8-induced intracellular calcium release) [4]: 5 µM | IC50 [5]: > 50000 nM

VYVGVWIPALLLTIPDFIFANDD [F-4-2]
Concentration, required for inhibition of signal transduction (µM) (SDF-1α-induced intracellular calcium release) (CXCR4 receptor [6]): 5 µM | EC50 in anti-HIV-1 assay (µM) (cytoprotection, CEM-SS cells infected with HIV-1RF) (CXCR4 receptor [6]): 0.3 µM

VIAATWCLSFTIMTPYPIYSNLVPFTDD [CCKAR-TM-4-2 (#71)]
Concentration, required for inhibition of signaling (CCK-8-induced intracellular calcium release) [4]: > 50 µM

LLFVITLPFWAVDAVANWYFGN [F-2-1]
antagonist potency relative to F-2-2 (CXCR4 receptor [2]): > 10 fold | Concentration, required for complete inhibition of [Ca^2+I] release (SDF-1α-induced) (CXCR4 receptor [7]): 5 µM | Concentration, required for complete inhibition of [Ca^2+I] release (CXCR4 receptor [3]): 5 µM

ALAFFHCCLNPILYAFLGAK-NH2 (cysteine pairing not given here) [F-7-1]
Concentration, required for complete inhibition of [Ca^2+I] release (SDF-1α-induced) (CXCR4 receptor [7]): > 100 µM

Ac-LLFVITLPFWAVDAVANDD [AcF-2-5]
Concentration, required for complete inhibition of [Ca^2+I] release (CXCR4 receptor [3]): 10 µM

B1: CCKAR-TM-1-6 (peptide)
peptide: DDEWQSALQILLYSIIFLLSVLGNTLVITV
notes: Synthetic peptide from the first transmembrane domain of rat CCKAR
Concentration, required for inhibition of signaling (CCK-8-induced intracellular calcium release) [4]: 50 µM | IC50 [5]: 20000 nM

KVYVGVWIPALLLTIPDFIF [F-4-1]
Concentration, required for complete inhibition of [Ca^2+I] release (SDF-1α-induced) (CXCR4 receptor [7]): > 50 µM

VILILAFFACWLPYYIGISID [F-6-1]
Concentration, required for complete inhibition of [Ca^2+I] release (SDF-1α-induced) (CXCR4 receptor [7]): 10 µM | Concentration, required for inhibition of signal transduction (µM) (SDF-1α-induced intracellular calcium release) (CXCR4 receptor [6]): 10 µM | EC50 in anti-HIV-1 assay (µM) (cytoprotection, CEM-SS cells infected with HIV-1RF) (CXCR4 receptor [6]): > 50 µM

Ac-LLFVITLPFWAVDAVANWYFGNDDK(Rhod)D (reading uncertain) [Rhod - AcF-2-2]
Concentration, required for complete inhibition of [Ca^2+I] release (CXCR4 receptor [3]): 8 µM
